The values below come from US20100322946A1 (Genentech, published 2010).

For assay [1], the target named is T1, VEGF109 (receptor-binding domain of human VEGF, residues 8-109) (human, UniProt P15692 214-315).
T1 construct: also called hVEGF109
T1 sequence (looked up): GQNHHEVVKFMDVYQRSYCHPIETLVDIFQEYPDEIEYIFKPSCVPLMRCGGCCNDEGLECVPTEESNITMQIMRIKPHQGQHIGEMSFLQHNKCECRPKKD
The experiment in a line: isothermal titration calorimetry. In general terms: Isothermal titration calorimetry measures the heat released or taken up as one component is titrated into another.

For assay [2], the target named is T1, VEGF109 (receptor-binding domain of …). The experiment in a line: calculated from ΔCp.
The target is the same in assay [3]. The experiment in a line: calculated from the SPR KD.
Assay [4] has the same target. The experiment in a line: calculated from ΔStot, ΔSdesolv and ΔSrt.

B1: bH1-44 Fab (Fab, V domains shown)
VH: EVQLVESGGGLVQPGGSLRLSCAASGFNISGTYIHWVRQAPGKGLEWVARIYPSEGYTRYADSVKGRFTISADTSKNTAYLQMNSLRAEDTAVYYCSRWVGVGFYAMDYWGQGTLVTVSS
VL: DIQMTQSPSSLSASVGDRVTITCRASQNIAKTISGYVAWYQQKPGKAPKLLIYWGSFLYSGVPSRFSGSGSGTDFTLTISSLQPEDFATYYCQQHYSSPPTFGQGTKVEIKR
notes: also called bH-44
Molecule B1 returned a ΔH in assay [1] of -7.1 kcal/mol. Moreover, the ΔSdesolv in assay [2] is 9.6e-05 kcal/mol. Further, in assay [3], the ΔG was -11.8 kcal/mol. Besides, the ΔSconf in assay [4] was -7.2e-05 kcal/mol.
